Measured values: the Immune Epitope Database (IEDB)

Assays:
Assay in all cases: IEDB peptide-MHC binding, purified MHC/competitive/radioactivity; filed as Kd, often an IC50 or EC50 that approximates it; ≥ and ≤ were set here for values at or beyond the usual limits of such assays
HLA-A*33:01 = target: HLA-A*33:01
HLA-A*11:01 = target: HLA-A*11:01
HLA-A*68:01 = target: HLA-A*68:01
HLA-A*31:01 = target: HLA-A*31:01
HLA-A*03:01 = target: HLA-A*03:01
[1] = source organism: Vaccinia virus WR
[2] = source organism: Dengue virus 3 Martinique/1243/1999
[3] = source organism: Dengue virus 2 Jamaica/1409/1983
[4] = source organism: Dengue virus 1 Brazil/97-11/1997
[5] = source organism: Lassa virus GA391
[6] = source organism: SARS coronavirus Tor2
[7] = source organism: Dengue virus 4 Philippines/H241/1956
[8] = source organism: Mammarenavirus machupoense
[9] = source organism: Mammarenavirus choriomeningitidis
[10] = source organism: Mammarenavirus brazilense
[11] = source organism: Mammarenavirus juninense

LSTLNFNNLR showed a Kd (HLA-A*33:01; [1]) of 1530 nM, a Kd (HLA-A*11:01; [1]) of 207 nM and a Kd (HLA-A*68:01; [1]) of 12 nM. The Kd (HLA-A*31:01; [1]) was 36.8 nM and the Kd (HLA-A*03:01; [1]) was 3740 nM.

FLISGKGIGK gave a Kd (HLA-A*03:01; [2]) of 53.2 nM.

For FIFSLKDTLK, the Kd (HLA-A*68:01; [2]) was 54.1 nM.

IMKNTTNTRR gave a Kd (HLA-A*31:01; [3]) of 13.9 nM.

Work on NTPVSMTYLY yielded a Kd (HLA-A*33:01; [1]) of no less than 70000 nM, a Kd (HLA-A*11:01; [1]) of 1400 nM and a Kd (HLA-A*68:01; [1]) of 415 nM. The Kd (HLA-A*31:01; [1]) was no less than 70000 nM and the Kd (HLA-A*03:01; [1]) was no less than 45500 nM.

ASILSLETVK showed a Kd (HLA-A*33:01; [1]) of no less than 70000 nM, a Kd (HLA-A*11:01; [1]) of 25.4 nM and a Kd (HLA-A*68:01; [1]) of 1770 nM. For the same sequence, the Kd (HLA-A*31:01; [1]) was 12800 nM and the Kd (HLA-A*03:01; [1]) was 4700 nM.

For YLALMATFK, the Kd (HLA-A*03:01; [4]) was 7.13 nM.

Work on NYSRYWYLNH yielded a Kd (HLA-A*33:01; [5]) of 1360 nM, a Kd (HLA-A*11:01; [5]) of no less than 30800 nM and a Kd (HLA-A*68:01; [5]) of no less than 70100 nM. The Kd (HLA-A*31:01; [5]) was 7960 nM and the Kd (HLA-A*03:01; [5]) was 16200 nM.

With TWMSAEGAWR the Kd (HLA-A*33:01; [2]) was 375 nM and the Kd (HLA-A*31:01; [2]) was 248 nM.

Sequence SSNVANYQK has a Kd (HLA-A*33:01; [6]) of no less than 77700 nM, a Kd (HLA-A*68:01; [6]) of 54.8 nM and a Kd (HLA-A*31:01; [6]) of 4040 nM.

Work on KTDFGFYQVK yielded a Kd (HLA-A*11:01; [7]) of 56 nM and a Kd (HLA-A*03:01; [7]) of 27.4 nM.

For EFIFSALDEK, the Kd (HLA-A*33:01; [1]) was 1630 nM, the Kd (HLA-A*11:01; [1]) was 1.42 nM and the Kd (HLA-A*68:01; [1]) was 1.3 nM. It also gave a Kd (HLA-A*31:01; [1]) of no less than 70000 nM and a Kd (HLA-A*03:01; [1]) of 15.5 nM.

DTNLITCNDH was tested, and the Kd (HLA-A*33:01; [8]) was no less than 30800 nM, the Kd (HLA-A*11:01; [8]) was no less than 69700 nM and the Kd (HLA-A*68:01; [8]) was no less than 70100 nM. The Kd (HLA-A*31:01; [8]) was no less than 70000 nM and the Kd (HLA-A*03:01; [8]) was no less than 70000 nM.

DTPSPPEVER showed a Kd (HLA-A*68:01; [4]) of 610 nM.

QILMKTANNY gave a Kd (HLA-A*33:01; [1]) of 8870 nM, a Kd (HLA-A*11:01; [1]) of 879 nM and a Kd (HLA-A*68:01; [1]) of 5020 nM. For the same sequence, the Kd (HLA-A*31:01; [1]) was 2380 nM and the Kd (HLA-A*03:01; [1]) was 106 nM.

In the case of SAFNKKHFDH, the Kd (HLA-A*33:01; [9]) is reported as no less than 28700 nM, the Kd (HLA-A*11:01; [9]) is reported as 1250 nM and the Kd (HLA-A*68:01; [9]) is reported as no less than 36600 nM. The Kd (HLA-A*31:01; [9]) was 12500 nM and the Kd (HLA-A*03:01; [9]) was no less than 22300 nM.

FIMAYVNQAH showed a Kd (HLA-A*33:01; [10]) of 14500 nM, a Kd (HLA-A*11:01; [10]) of no less than 42700 nM and a Kd (HLA-A*68:01; [10]) of 3450 nM. It also gave a Kd (HLA-A*31:01; [10]) of no less than 30200 nM and a Kd (HLA-A*03:01; [10]) of no less than 20300 nM.

GTMKIKDEER showed a Kd (HLA-A*68:01; [4]) of 165 nM.

DAVRAFLLR showed a Kd (HLA-A*33:01; [1]) of 23.4 nM, a Kd (HLA-A*11:01; [1]) of 13700 nM and a Kd (HLA-A*68:01; [1]) of 0.831 nM. It also gave a Kd (HLA-A*31:01; [1]) of 484 nM and a Kd (HLA-A*03:01; [1]) of no less than 34400 nM.

Sequence KLITEWCCR has a Kd (HLA-A*31:01; [3]) of 10.3 nM.

In the case of RLQMAGVEVR, the Kd (HLA-A*33:01; [1]) is reported as 4950 nM, the Kd (HLA-A*11:01; [1]) is reported as 14700 nM and the Kd (HLA-A*68:01; [1]) is reported as 910 nM. For the same sequence, the Kd (HLA-A*31:01; [1]) was 118 nM and the Kd (HLA-A*03:01; [1]) was 1480 nM.

AMYYAVLSEY showed a Kd (HLA-A*33:01; [1]) of 5190 nM, a Kd (HLA-A*11:01; [1]) of 89.8 nM and a Kd (HLA-A*68:01; [1]) of 982 nM. The Kd (HLA-A*31:01; [1]) was 2850 nM and the Kd (HLA-A*03:01; [1]) was no more than 1 nM.

SSESLVYGIR was tested, and the Kd (HLA-A*33:01; [1]) was 623 nM, the Kd (HLA-A*11:01; [1]) was 476 nM and the Kd (HLA-A*68:01; [1]) was 475 nM. It also gave a Kd (HLA-A*31:01; [1]) of 780 nM and a Kd (HLA-A*03:01; [1]) of no less than 34800 nM.

Work on KTQFNYFKK yielded a Kd (HLA-A*33:01; [6]) of no less than 77300 nM, a Kd (HLA-A*11:01; [6]) of 2.26 nM and a Kd (HLA-A*68:01; [6]) of 2830 nM. It also gave a Kd (HLA-A*31:01; [6]) of 2.32 nM and a Kd (HLA-A*03:01; [6]) of 115 nM.

Sequence LMIVAKHER has a Kd (HLA-A*31:01; source organism: Dengue virus 4 Dominica/814669/1981) of 49.8 nM.

Sequence KFAEESYTYY has a Kd (HLA-A*33:01; [1]) of no less than 42100 nM, a Kd (HLA-A*11:01; [1]) of 10200 nM and a Kd (HLA-A*68:01; [1]) of 1130 nM. The Kd (HLA-A*31:01; [1]) was no less than 21700 nM and the Kd (HLA-A*03:01; [1]) was 4860 nM.

Work on TTRMENLLWK yielded a Kd (HLA-A*11:01; [2]) of 103 nM and a Kd (HLA-A*03:01; [2]) of 102 nM.

Work on SNMLSIINK yielded a Kd (HLA-A*11:01; [2]) of 116 nM.

With VSILLSSLLK the Kd (HLA-A*11:01; [4]) was 49.2 nM and the Kd (HLA-A*03:01; [4]) was 10.9 nM.

LSKSEFNTYK was tested, and the Kd (HLA-A*11:01; [4]) was 557 nM.

Sequence KLGDKGSPYY has a Kd (HLA-A*33:01; [1]) of no less than 39400 nM, a Kd (HLA-A*11:01; [1]) of 3570 nM and a Kd (HLA-A*68:01; [1]) of 5080 nM. The Kd (HLA-A*31:01; [1]) was no less than 23100 nM and the Kd (HLA-A*03:01; [1]) was 2.48 nM.

With RSTAIKVTK the Kd (HLA-A*33:01; [1]) was 11200 nM, the Kd (HLA-A*11:01; [1]) was 6.77 nM and the Kd (HLA-A*68:01; [1]) was 13.9 nM. It also gave a Kd (HLA-A*31:01; [1]) of 1.26 nM and a Kd (HLA-A*03:01; [1]) of 214 nM.

SLRTTTVTGK showed a Kd (HLA-A*03:01; [4]) of 6.38 nM.

In the case of RVSTVQQLTK, the Kd (HLA-A*11:01; [3]) is reported as 204 nM and the Kd (HLA-A*03:01; [3]) is reported as 17.5 nM.

Work on MTSRMLLNR yielded a Kd (HLA-A*33:01; [4]) of 2.47 nM, a Kd (HLA-A*11:01; [4]) of 40.4 nM and a Kd (HLA-A*68:01; [4]) of 54.6 nM. The Kd (HLA-A*31:01; [4]) was no less than 23600 nM.

MWQLMYFHRR gave a Kd (HLA-A*33:01; [4]) of 11.3 nM and a Kd (HLA-A*31:01; [4]) of no less than 25700 nM.

Work on KLYEEPLSK yielded a Kd (HLA-A*03:01; source organism: Homo sapiens) of 2.5 nM.

In the case of SLRPQPTELK, the Kd (HLA-A*03:01; [3]) is reported as 3.01 nM.

In the case of LVTFKTAHAK, the Kd (HLA-A*11:01; [4]) is reported as 478 nM and the Kd (HLA-A*03:01; [4]) is reported as 26.2 nM.

Sequence GILARWSSFK has a Kd (HLA-A*11:01; [4]) of 29.4 nM and a Kd (HLA-A*03:01; [4]) of 2.06 nM.

In the case of AIKILTGFR, the Kd (HLA-A*31:01; [7]) is reported as 54.7 nM.

RSCTLPPLR was tested, and the Kd (HLA-A*31:01; [3]) was 4.6 nM.

With AVAKCNLNH the Kd (HLA-A*11:01; [11]) was 230 nM, the Kd (HLA-A*68:01; [11]) was no less than 46500 nM and the Kd (HLA-A*31:01; [11]) was 688 nM. The Kd (HLA-A*03:01; [11]) was 84.6 nM.

Sequence GTVTMECSPR has a Kd (HLA-A*68:01; [3]) of 89 nM.

For VSTPQGLVK, the Kd (HLA-A*11:01; [7]) was 6890 nM.
